Data taken from IntAct's records for PubMed 20173742.

B1: Kelch-like ECH-associated protein 1 (Mus musculus), Q9Z2X8 (parent)
chain: MQPEPKLSGAPRSSQFLPLWSKCPEGAGDAVMYASTECKAEVTPSQDGNRTFSYTLEDHTKQAFGVMNELRLSQQLCDVTLQVKYEDIPAAQFMAHKVVLASSSPVFKAMFTNGLREQGMEVVSIEGIHPKVMERLIEFAYTASISVGEKCVLHVMNGAVMYQIDSVVRACSDFLVQQLDPSNAIGIANFAEQIGCTELHQRAREYIYMHFGEVAKQEEFFNLSHCQLATLISRDDLNVRCESEVFHACIDWVKYDCPQRRFYVQALLRAVRCHALTPRFLQTQLQKCEILQADARCKDYLVQIFQELTLHKPTQAVPCRAPKVGRLIYTAGGYFRQSLSYLEAYNPSNGSWLRLADLQVPRSGLAGCVVGGLLYAVGGRNNSPDGNTDSSALDCYNPMTNQWSPCASMSVPRNRIGVGVIDGHIYAVGGSHGCIHHSSVERYEPERDEWHLVAPMLTRRIGVGVAVLNRLLYAVGGFDGTNRLNSAECYYPERNEWRMITPMNTIRSGAGVCVLHNCIYAAGGYDGQDQLNSVERYDVETETWTFVAPMRHHRSALGITVHQGKIYVLGGYDGHTFLDSVECYDPDSDTWSEVTRMTSGRSGVGVAVTMEPCRKQIDQQNCTC
partner: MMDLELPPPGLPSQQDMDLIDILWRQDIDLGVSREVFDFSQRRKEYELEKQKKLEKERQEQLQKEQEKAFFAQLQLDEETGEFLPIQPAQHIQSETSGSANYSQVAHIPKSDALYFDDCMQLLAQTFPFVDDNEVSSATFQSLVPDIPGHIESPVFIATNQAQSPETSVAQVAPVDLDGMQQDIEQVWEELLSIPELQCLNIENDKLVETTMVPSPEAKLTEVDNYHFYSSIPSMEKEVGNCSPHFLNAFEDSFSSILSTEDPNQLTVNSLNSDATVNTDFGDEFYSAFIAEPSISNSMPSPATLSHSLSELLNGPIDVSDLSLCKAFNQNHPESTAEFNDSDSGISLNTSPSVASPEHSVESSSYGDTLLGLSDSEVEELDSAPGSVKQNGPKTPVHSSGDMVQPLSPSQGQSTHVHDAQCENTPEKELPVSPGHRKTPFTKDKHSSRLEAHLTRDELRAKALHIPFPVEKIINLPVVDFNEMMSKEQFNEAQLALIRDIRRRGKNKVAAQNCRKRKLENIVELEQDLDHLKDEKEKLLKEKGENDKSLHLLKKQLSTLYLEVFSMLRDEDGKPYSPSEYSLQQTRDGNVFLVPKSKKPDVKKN

Variants of: B1
Settings: with nf2l2_human NFE2L2, Q16236

Row | Variant | effect of a mutation on the interaction
1 | R415A | disrupting interaction
2 | R380A | decreasing interaction
3 | Y334A | disrupting interaction
4 | S363A | disrupting interaction

Second part, the variant after the results:

Row | effect of a mutation on the interaction | Variant
5 | decreasing interaction | S555A
6 | disrupting interaction | S508A
7 | decreasing interaction | Q530A
8 | disrupting interaction | S602A
9 | disrupting interaction | N382A
